Target: biotinylated yeast L3Δ21 peptide (S. cerevisiae) (UniProt P14126)
Experiment: SPR; Biacore 3000; biotinylated L3Δ21 peptide on an SA sensor chip (Fc2), PAP as analyte at 103, 94, 75 and 45 pM; 25 °C; HBS-EP (0.1 M HEPES pH 7.4, 0.15 M NaCl, 3 mM EDTA, 0.005% polysorbate 20); 1:1 Langmuir fit

Chain of UniProt P14126 (P14126 1-21, stated change not applied): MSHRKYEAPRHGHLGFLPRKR

Substance: His-tagged pokeweed antiviral protein (PAP), recombinant (enzyme)
- Kd: 24.8 nM
- koff: 4.6e-05 s⁻¹
- kon: 1860 M⁻¹ s⁻¹
